According to publication PMC9900802:

Target: LUC^N-MLO2^CT-LW/RR (A. thaliana)
Experiment: split reporter

Substance: LUC^C-CAM2 (pAMPAT-LUC^C) (from UniProt P0DH97 1-149) (natural protein)
- luciferase activity (median): 4900 units/mm^2
